Test results published in patent US6114296.

Legend:
[1] = molecular target: Humicola insolens 43 kD endoglucanase (Humicola insolens)
[2] = molecular target: Variant I: V221S+N222S+Q223T (Humicola insolens)
[3] = molecular target: Variant II: V240P+Q241P (Humicola insolens)

## Savinase protease (from UniProt P29600) (enzyme)
[1]
  Residual Activity, % DAA (25° C., 5 d storage in liquid detergent with protease): 63 % DAA
[2]
  Residual Activity, % DAA (25° C., 5 d storage in liquid detergent with protease): 83 % DAA
[3]
  Residual Activity, % DAA (25° C., 5 d storage in liquid detergent with protease): 81 % DAA
